± gives the uncertainty stated by the source.
Experiment: protein stability index of a GFP-peptide fusion (yeast GPS) (PSI 1-4); higher = more stable; sorted into four equal gates, so the index is relative within each strain
Method in brief: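 Mid-log yeast cultures in leucine-free medium, carrying a pooled plasmid library, were sorted into four equal gates by their GFP/Cherry fluorescence ratio. Each plasmid expressed Cherry along with GFP fused upstream of a tiled 17-residue yeast protein peptide. Plasmids recovered from each gate were PCR-amplified and Illumina-sequenced, with reads assigned to strains by barcodes. The protein stability index was obtained by summing each gate's read frequency weighted by its gate number.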

Row | Sequence | protein stability index (doa10∆) | protein stability index (pdr5∆) | protein stability index (san1∆) | protein stability index (ubr1∆)
1 | NDILVLMESEREARRLR [RPS28A] | 1.56 ± 0.12 | 2.94 ± 0.079 | 2.08 ± 0.16 | 2.7 ± 0.097
2 | INVVIKASRKSVGLPSK [ECM29] | 1.27 ± 0.089 | 1.7 ± 0.074 | 1.95 ± 0.24 | 1.26 ± 0.13
3 | GNESVKPQFENHVKQFY [MED11] | 2.83 ± 0.19 | 2.57 ± 0.22 |  | 
4 | QTQEFFLSSFDDVLQTI [YJL039C/NUP192] | 2.65 ± 0.046 | 2.27 ± 0.048 | 2.32 ± 0.047 | 2.51 ± 0.034
5 | WVIRKQRRTNNSGVGSA [MED6] | 2.48 ± 0.27 | 2.36 ± 0.14 | 2.58 ± 0.11 | 2.8 ± 0.14
6 | ILMGFTLKDNIVVMDCF [RRI1] |  | 1.97 ± 0.084 | 2.74 ± 0.12 | 1.39 ± 0.14
7 | ESYDAALSLHREILCYS [FAS2] | 2.18 ± 0.022 | 2.151 ± 0.019 | 2.28 ± 0.028 | 2.28 ± 0.017
8 | LQDWQREDEFGSIPSLT [YDL088C/ASM4] | 3.22 ± 0.073 | 3.19 ± 0.066 | 3.11 ± 0.049 | 3.53 ± 0.082
9 | MDALYEKIWFAISKENL [SIR3] | 2.21 ± 0.06 | 1.95 ± 0.052 | 1.51 ± 0.088 | 1.27 ± 0.047
10 | LNDSNVKSFKPHLLKQG [RRP42] | 2.63 ± 0.083 | 3.25 ± 0.18 | 2.58 ± 0.24 | 2.54 ± 0.13
11 | WKSPEWIQVFGLRTENV [MED6] | 2.14 ± 0.084 | 2.22 ± 0.058 | 2 ± 0.13 | 2.35 ± 0.072
12 | DFIQLKQTAAYRTPGSS [SSN2] | 2.88 ± 0.064 | 2.98 ± 0.071 | 2.79 ± 0.083 | 2.92 ± 0.044
13 | VSNISCLTGTVAARMFH [ECM29] | 1.66 ± 0.042 | 1.59 ± 0.039 | 2.28 ± 0.087 | 2.19 ± 0.045
14 | GIDINTKIFNSVAEVFQ [YCG1] | 2.08 ± 0.1 | 2.93 ± 0.12 | 2.39 ± 0.12 | 2.86 ± 0.067
15 | KDIVNISIPKTCDEIQN [REC8] | 2.81 ± 0.067 | 2.74 ± 0.056 | 2.54 ± 0.05 | 2.84 ± 0.042
16 | RAEAKAQGVAVQLKRQP [RPL21A] | 2.75 ± 0.096 | 2.19 ± 0.08 | 1.71 ± 0.12 | 2.46 ± 0.11
17 | FSFGKPFFSSNTSSLQS [YIL149C/MLP2] | 2.95 ± 0.054 | 3.07 ± 0.052 | 2.86 ± 0.046 | 2.926 ± 0.028
18 | DKIAVAVAGLTADAEIL [PRE9] | 1.5 ± 0.098 | 1.65 ± 0.077 | 1.25 ± 0.21 | 2.1 ± 0.075
19 | TISSADFIQNVGRLWDQ [ECM29] | 2.98 ± 0.15 | 3.5 ± 0.14 | 3.39 ± 0.083 | 3.42 ± 0.061
20 | VTLYWNNAKLLTFMTCN [ESC2] | 1.89 ± 0.041 | 2.09 ± 0.041 | 2.34 ± 0.045 | 2.57 ± 0.029
21 | TSVTRRSPVFALNMLPS [GRR1] | 1.45 ± 0.038 | 1.61 ± 0.037 | 1.51 ± 0.061 | 1.73 ± 0.033
22 | FMVRLDSEKHIDFAPTS [RPS9A] | 2.91 ± 0.071 | 2.87 ± 0.047 | 2.72 ± 0.05 | 2.82 ± 0.047
23 | YQNMAFITAKDKYKLYP [YJR042W/NUP85] | 2.9 ± 0.063 | 3.06 ± 0.11 | 3.16 ± 0.076 | 2.88 ± 0.077
24 | NFLDAPGHVNFMDETAV [SNU114] | 3.26 ± 0.16 | 3.28 ± 0.11 | 3.29 ± 0.068 | 3.08 ± 0.11
25 | KEEQPKQIIVTRKAMLD [PRP8] | 2.62 ± 0.078 | 3.09 ± 0.082 | 2.71 ± 0.068 | 2.61 ± 0.049
26 | GHIVSLELTTGATYRGK [SMD3] | 1.98 ± 0.049 | 2.03 ± 0.049 | 2.12 ± 0.085 | 2.34 ± 0.053

Row | Sequence | protein stability index (doa10∆) | protein stability index (pdr5∆) | protein stability index (san1∆) | protein stability index (ubr1∆)
27 | EYIDDHRSGKIVVQLNG [RPS22A] | 3.21 ± 0.23 | 3.28 ± 0.17 | 2.77 ± 0.13 | 2.47 ± 0.23
28 | AGVSHGTLGEIFIRCNN [SMX3] | 3.57 ± 0.14 | 3.37 ± 0.096 | 2.91 ± 0.094 | 3.29 ± 0.08
29 | RKEGPTIYYVDSDGTRL [PRE2] | 2.24 ± 0.048 | 1.9 ± 0.034 | 2.03 ± 0.074 | 2.32 ± 0.034
30 | AFRTIESKSDDNSATSY [RRI1] | 3.06 ± 0.079 | 3.26 ± 0.079 | 3.15 ± 0.053 | 3.34 ± 0.091
31 | ILDCVVTNSMRQTLAPY [YJR042W/NUP85] | 2.29 ± 0.064 | 2.84 ± 0.052 | 2.53 ± 0.05 | 2.6 ± 0.048
32 | NLQQQQQQQIQVPLQQT [YGR119C/NUP57] | 2.56 ± 0.13 | 2.76 ± 0.078 | 2.16 ± 0.18 | 3.03 ± 0.11
33 | ENKVMLPRCSKEEFRLM [RRI2] | 1.8 ± 0.06 | 2.1 ± 0.076 | 2.06 ± 0.088 | 1.7 ± 0.048
34 | EEEVDIDMDKLNTVLIA [RRP43] | 3.35 ± 0.091 | 3.32 ± 0.095 | 3.02 ± 0.077 | 2.89 ± 0.068
35 | GAPGANARMPGMPNMPG [SRP54] | 3.15 ± 0.083 | 3.2 ± 0.28 | 2.92 ± 0.12 | 2.9 ± 0.11
36 | KLKEYLDLVARTATLSN [YDL116W/NUP84] | 2.63 ± 0.23 | 2.88 ± 0.16 | 2.99 ± 0.1 | 2.74 ± 0.15
37 | AEDQILANFVAKGFYHT [SRB8] | 2.91 ± 0.092 | 3.25 ± 0.055 | 3.25 ± 0.12 | 3.05 ± 0.065
38 | ADYNGALLRVTKSKNKT [POP4] | 2.61 ± 0.066 | 2.14 ± 0.058 | 2.42 ± 0.077 | 2.36 ± 0.053
39 | RIQKIISKRKEELEEEF [YIL149C/MLP2] | 3.13 ± 0.12 | 2.47 ± 0.13 | 3.02 ± 0.18 | 2.86 ± 0.13
40 | LLQLKYFSNKTSTGIIR [POP5] | 2.46 ± 0.19 | 1.84 ± 0.13 | 1.35 ± 0.29 | 1.98 ± 0.062
41 | DLIAEQVVTDYNILGNL [SSN2] | 2.52 ± 0.074 | 3.11 ± 0.077 | 2.28 ± 0.11 | 2.21 ± 0.063
42 | TRLLNIVMQLRKCCNHP [ISW2] | 2.65 ± 0.062 | 2.84 ± 0.061 | 2.94 ± 0.049 | 2.84 ± 0.057
43 | APIADDNHSGDATANAT [DSN1] | 3.15 ± 0.1 | 3.08 ± 0.071 | 3.27 ± 0.083 | 3.38 ± 0.076
44 | IKQTSDESTIKRIKPNT [ECM29] | 3 ± 0.073 | 3 ± 0.068 | 2.85 ± 0.048 | 2.94 ± 0.059
45 | PLSGLLFKNYRFNFISK [YMR129W/POM152] | 2.85 ± 0.11 | 2.17 ± 0.07 | 1.73 ± 0.098 | 2.25 ± 0.094
46 | EAGVTDVKVSISHDDLQ [FAS2] | 2.77 ± 0.049 | 2.72 ± 0.038 | 2.74 ± 0.061 | 2.85 ± 0.047
47 | SNVAAIFKGIGGNFKDL [GAL11] | 2.78 ± 0.11 | 2.76 ± 0.079 | 2.58 ± 0.079 | 2.72 ± 0.1
48 | LNEFFTRELAEEGYSGV [RPS3] | 2.5 ± 0.22 | 1.82 ± 0.12 | 1.44 ± 0.15 | 1.68 ± 0.11
49 | NNGVSNLWKNIFLSKEN [COR1] | 2.98 ± 0.082 | 2.9 ± 0.059 | 2.67 ± 0.089 | 2.4 ± 0.058
50 | STKKDTVQLTFLIDVLK [YCG1] | 2.38 ± 0.096 | 2.72 ± 0.068 | 2.47 ± 0.078 | 2.81 ± 0.068
51 | GLDATKLYVSHIQVNQA [RPL17A] | 2.5 ± 0.096 | 2.99 ± 0.063 | 3 ± 0.043 | 3.05 ± 0.05

Reference: the supplement of paper PMC9732359
